Data: patent US20230174672A1 (VEGA THERAPEUTICS, published 2023)

What was measured:
human Protein S [1] = target: T1, human Protein S (human, UniProt P07225 42-676); experiment: SPR, Biacore X100; antibody captured on anti-human IgG (Fc), purified Protein S 2-128 nM as analyte, HBS-EP + 5 mM CaCl2, 1:1 model
T1 construct: also called ProS; ProS1
T1 sequence: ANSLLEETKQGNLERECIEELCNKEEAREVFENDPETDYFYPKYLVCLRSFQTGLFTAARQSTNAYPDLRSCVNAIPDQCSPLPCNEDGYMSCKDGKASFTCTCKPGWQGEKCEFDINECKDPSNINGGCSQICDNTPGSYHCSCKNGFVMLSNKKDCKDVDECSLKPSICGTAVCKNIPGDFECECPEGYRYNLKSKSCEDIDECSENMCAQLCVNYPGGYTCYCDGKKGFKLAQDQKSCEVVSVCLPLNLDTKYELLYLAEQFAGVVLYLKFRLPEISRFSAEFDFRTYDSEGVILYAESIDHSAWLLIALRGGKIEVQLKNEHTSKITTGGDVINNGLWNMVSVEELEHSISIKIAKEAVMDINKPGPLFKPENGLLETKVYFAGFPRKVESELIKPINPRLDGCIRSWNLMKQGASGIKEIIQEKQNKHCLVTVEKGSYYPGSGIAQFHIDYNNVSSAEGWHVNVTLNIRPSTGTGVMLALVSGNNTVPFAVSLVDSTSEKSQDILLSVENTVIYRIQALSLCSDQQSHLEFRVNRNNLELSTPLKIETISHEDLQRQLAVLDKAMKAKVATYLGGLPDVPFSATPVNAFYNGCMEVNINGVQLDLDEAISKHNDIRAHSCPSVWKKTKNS
Procedure: Binding interaction analysis was obtained by Surface Plasmon Resonance in a Biacore X100 instrument. The human anti-IgG (Fc) antibody was immobilized to the carboxymethylated dextran membrane on the sensor chip surface (CM5) via the free amine method for a contact time of 420 seconds. Human anti-IgG antibody at 25 µg/mL in 0.15 M NaCl was immobilized to 9,785 RU in 10 mM sodium acetate pH 5.0. Each tested monoclonal antibody was captured at a fixed concentration (0.25 µg/mL) with immobilized human anti-IgG antibody.
The following experimental conditions were used: purified Protein S was injected at concentrations: 2-128 nM, 1:2-fold dilution. Dilution and running buffer were as follows: Hbs-EP + 5 mM CaCl₂. Regeneration was obtained by 3 M MgCl₂. Binding constants (ka, kd, and KD) were determined using the Biacore X100 evaluation software, assuming a 1:1 interaction of Protein S and the tested monoclonal antibody under investigation.

human Protein S [2] = target: T1, human Protein S; experiment: BLI, Octet; antibody on anti-human Fc capture probes, Protein S 7.81-500 nM, 4 mM calcium chloride
Procedure: (§1) Binding affinities of the Protein S antibodies provided herein were also further characterized using the Octet System (Sartorius). The binding of each antibody to both human and cynomolgus monkey (“cyno”) Protein S was determined. The human Fc antibodies were immobilized onto anti-human Fc capture probes by placing the probes into 10 µg/ml antibody solution in 10 mg/ml bovine serum albumin, 20 mM Tris pH 7.0, 150 mM NaCl, and 4 mM calcium chloride. […] Next, the probes were placed into buffer and the dissociation rates were measured.

[3] = target: T2, cynomolgus monkey Protein S (cynomolgus monkey); experiment: as above
T2 construct: also called cyno Protein S
Procedure: as §1

Protein S-C4BP complex = target: T3, Protein S-C4BP complex (human, UniProt P04003 49-597; P20851 18-252); experiment: Octet BLI, antibody captured on anti-human Fc probes; a dash indicates that the binding did not occur
T3 construct: Bought C4BP preparation that contains Protein S precomplexed to human C4BP; also called ProS-C4BP Complex; C4BP-Protein S complex
T3 sequence 1: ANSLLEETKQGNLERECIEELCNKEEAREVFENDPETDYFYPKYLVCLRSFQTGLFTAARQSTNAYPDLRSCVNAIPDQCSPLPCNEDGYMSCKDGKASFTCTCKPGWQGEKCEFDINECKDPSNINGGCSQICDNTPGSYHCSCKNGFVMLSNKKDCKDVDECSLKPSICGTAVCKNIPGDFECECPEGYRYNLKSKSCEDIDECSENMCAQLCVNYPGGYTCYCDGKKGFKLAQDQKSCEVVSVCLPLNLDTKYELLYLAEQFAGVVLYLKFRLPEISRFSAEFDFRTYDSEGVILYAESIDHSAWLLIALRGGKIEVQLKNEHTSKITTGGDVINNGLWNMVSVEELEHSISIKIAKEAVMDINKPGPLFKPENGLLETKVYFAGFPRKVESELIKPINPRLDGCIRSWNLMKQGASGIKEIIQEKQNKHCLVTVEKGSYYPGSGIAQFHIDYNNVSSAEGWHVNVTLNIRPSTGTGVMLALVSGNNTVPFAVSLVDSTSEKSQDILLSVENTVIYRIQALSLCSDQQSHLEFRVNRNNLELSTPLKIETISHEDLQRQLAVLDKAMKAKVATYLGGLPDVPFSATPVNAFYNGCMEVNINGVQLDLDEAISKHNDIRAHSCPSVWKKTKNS
T3 sequence 2: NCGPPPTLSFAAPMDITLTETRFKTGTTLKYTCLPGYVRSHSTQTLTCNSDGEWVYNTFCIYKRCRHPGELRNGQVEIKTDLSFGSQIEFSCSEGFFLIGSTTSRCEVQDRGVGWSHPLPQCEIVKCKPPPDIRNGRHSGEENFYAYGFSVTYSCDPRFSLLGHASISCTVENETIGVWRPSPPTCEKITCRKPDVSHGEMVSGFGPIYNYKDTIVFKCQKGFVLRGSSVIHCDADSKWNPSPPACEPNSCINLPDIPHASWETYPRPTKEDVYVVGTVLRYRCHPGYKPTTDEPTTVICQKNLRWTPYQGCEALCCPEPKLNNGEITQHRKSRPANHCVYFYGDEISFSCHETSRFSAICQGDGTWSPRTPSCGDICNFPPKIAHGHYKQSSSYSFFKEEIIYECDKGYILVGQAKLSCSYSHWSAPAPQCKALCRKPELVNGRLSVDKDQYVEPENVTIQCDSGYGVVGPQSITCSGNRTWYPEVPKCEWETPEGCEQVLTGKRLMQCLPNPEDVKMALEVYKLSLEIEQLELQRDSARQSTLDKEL
T3 sequence 3: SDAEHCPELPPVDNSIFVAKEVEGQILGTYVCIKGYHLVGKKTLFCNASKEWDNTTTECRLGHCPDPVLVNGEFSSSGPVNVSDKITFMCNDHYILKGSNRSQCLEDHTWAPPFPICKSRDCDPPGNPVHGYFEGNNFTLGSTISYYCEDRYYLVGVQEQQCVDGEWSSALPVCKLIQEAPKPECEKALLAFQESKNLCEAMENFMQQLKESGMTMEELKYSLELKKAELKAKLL
Procedure: The Octet assay was used to determine the capability of the Protein S antibodies provided herein to bind to Protein S either alone, or when complexed to C4BP.
Using the Octet System (Sartorius), the binding of each antibody to both Protein S and Protein S in complex with C4BP was determined. It had previously been determined that the C4BP preparation from Complement Technologies contains Protein S precomplexed to human C4BP. […] Then the bound antibodies were placed into solutions containing either 75 µg/ml Protein S or 100 µg/ml C4BP (C4BP-Protein S complex).

[4] = target: T4, recombinant heavy chain Protein S (amino acids 42-296) (human, UniProt P07225 42-296); experiment: ELISA, plate coated with recombinant Protein S heavy chain (aa 42-296), 1 µg/ml antibody, 1 mM calcium chloride
T4 construct: Expressed and purified from HEK293 cells; No tags are stated; also called heavy chain of Protein S; Protein S heavy chain
T4 sequence: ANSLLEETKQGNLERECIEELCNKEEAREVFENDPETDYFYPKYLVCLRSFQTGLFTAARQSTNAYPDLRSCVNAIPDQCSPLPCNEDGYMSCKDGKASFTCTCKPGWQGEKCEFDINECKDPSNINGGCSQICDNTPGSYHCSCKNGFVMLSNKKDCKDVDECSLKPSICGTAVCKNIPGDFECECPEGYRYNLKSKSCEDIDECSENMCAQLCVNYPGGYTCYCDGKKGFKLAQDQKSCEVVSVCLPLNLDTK
Procedure: (§2) Binding to the heavy chain of Protein S was determined using an ELISA based method. Briefly, high binding ELISA plates were coated with recombinant heavy chain Protein S expressed and purified from HEK293 cells. The “heavy chain” of Protein S represents a fragment of Protein S spanning amino acids 42-296. The coated plate was blocked with 1% casein solution. Then, buffer containing 1 µg/ml of antibody to be tested was applied to the well with buffer containing 1 mM calcium chloride.

human Protein S [5] = target: T1, human Protein S; experiment: ELISA, plate coated with human Protein S, 1 µg/ml antibody, 1 mM calcium chloride
Procedure: (§3) Calcium dependence of binding was determined using an ELISA based method. Briefly, high binding ELISA plates were coated with human Protein S. Then, buffer containing 1 µg/ml of antibody was applied to the well with either buffer containing 1 mM EDTA or 1 mM calcium chloride. If the level of binding of Protein S was reduced ([…] of the absorbance observed in the presence of calcium) when EDTA was added, it was concluded that the binding was calcium-dependent.

[6] = target: T4, recombinant heavy chain Protein S …; experiment: ELISA on plate-coated recombinant Protein S heavy chain (aa 42-296), 1 mM calcium chloride
Procedure: as §2

human Protein S [7] = target: T1, human Protein S; experiment: ELISA, plate coated with human Protein S, 1 µg/ml antibody, 1 mM EDTA
Procedure: as §3

| Binder | Kd (human Protein S [1]) [nM] | koff (human Protein S [1]) [s⁻¹] | kon (human Protein S [1]) [M⁻¹ s⁻¹] | Kd (human Protein S [2]) [nM] | koff (human Protein S [2]) [s⁻¹] | kon (human Protein S [2]) [M⁻¹ s⁻¹] | Kd [3] [nM] | koff [3] [s⁻¹] | kon [3] [M⁻¹ s⁻¹] | binding result (Protein S-C4BP complex) | Binding to heavy chain (OD) [4] [OD] | Binding to Protein S in CaCl2 (OD) (human Protein S [5]) | binding result [6] | Binding to Protein S in EDTA (OD) (human Protein S [7]) |
| --- | --- | --- | --- | --- | --- | --- | --- | --- | --- | --- | --- | --- | --- | --- |
| Antibody 5 (antibody, V domains shown, also called Protein S Antibody with Human Fc; Combination 8) VH: QVQLVQSGAEVKKPGASVKVSCKASGYTFTSYDINWVRQATGQGLEWMGWVNPNSDNIGYAQKFQGRVTMTRNTSISTAYMELSSLRSEDSAVYYCVRGAAAAWDAFAIWGQGTMVTVSS VL: EIVMTQSPATLSVSPGERATLSCRASQSVGSNLAWYQQKPGQAPRLLIYGASTRATGGPARFSGSGSGTEFTLTISSLQSEDFAVYYCQQYNNWPLTFGGGTKVEIK | 28 | 0.00227 | 81200 | 7.8 | 0.000493 | 63300 | 4.19 | 0.000283 | 67500 | – | – | – | – | – |
| Antibody 10 (antibody, human IgG4, V domains shown, also called Protein S Antibody with Human Fc; Combination 9) VH: EVQLLESGGGLVQPGGSLRLSCAASRFSFSSYAMSWVRQAPGKGLEWVSAISDSGSNTYYADSVKGLFTISRDNSKNTLYLQMNSLRAEDTAVYYCAKNYESGGYYTFFDYWGQGTLVTVST VL: EIVMTQSPATLSVFPGERATLSCRASQSVRSNLAWHQQKLGQAPRLLLYGASTRATGIPARFSGSGSGTEFTLAISSLQSEDFAVYYCQQYNSWPFTFGGGTKVGIK | 31 | 0.00514 | 167000 | 16.8 | 0.00213 | 127000 | 12.3 | 0.00132 | 107000 | no binding (tested: 100 µg/ml C4BP (C4BP-Protein S complex)) | – | – | – | – |
| Antibody 26 (antibody, human IgG4, V domains shown, also called Protein S Antibody with Human Fc; Combination 16) VH: EVQVVESGGGLVQPGGSLRLSCAASGFTLNSFWMSWVRQAPGKGLEWVANIKEDGSEKYYVDSVKGRFTISRDNAKNSLYLQMNGLRAEDTALYYCARETDILTAYYSDYYSYYGMDVWGQGTTVTVSA VL: DIQMTQSPSSLSASVRDRVTINCRASQSIRSYLNWYQQKPGKAPKLLIYAASSLQGGVPSRFSGSGSGTDFTLTISSLQPEDFATYYCQQSYSTPRTFGQGTKVEIK | – | – | – | 0.466 | 4.58e-05 | 98500 | 0.349 | 3.15e-05 | 90300 | no binding (tested: 100 µg/ml C4BP (C4BP-Protein S complex)) | – | – | – | – |
| Antibody 17 (antibody, V domains shown, Human variable region with a rat Fc domain; also called Protein S Antibody with Rat Fc; parental rat antibody of Antibody 5) VH: QVQLVQSGAEVKKPGASVKVSCKASGYTFTSYDINWVRQATGQGLEWMGWVNPNSDNIGYAQKFQGRVTMTRNTSISTAYMELSSLRSEDSAVYYCVRGAAAAWDAFAIWGQGTMVTVSS VL: EIVMTQSPATLSVSPGERATLSCRASQSVGSNLAWYQQKPGQAPRLLIYGASTRATGGPARFSGSGSGTEFTLTISSLQSEDFAVYYCQQYNNWPLTFGGGTKVEIK | – | – | – | – | – | – | – | – | – | – | 0.07 | 0.54 | no binding | 0.39 |
| Antibody 22 (antibody, V domains shown, Human variable region with a rat Fc domain; also called Protein S Antibody with Rat Fc; parental rat antibody of Antibody 10) VH: EVQLLESGGGLVQPGGSLRLSCAASRFSFSSYAMSWVRQAPGKGLEWVSAISDSGSNTYYADSVKGLFTISRDNSKNTLYLQMNSLRAEDTAVYYCAKNYESGGYYTFFDYWGQGTLVTVST VL: EIVMTQSPATLSVFPGERATLSCRASQSVRSNLAWHQQKLGQAPRLLLYGASTRATGIPARFSGSGSGTEFTLAISSLQSEDFAVYYCQQYNSWPFTFGGGTKVGIK | – | – | – | – | – | – | – | – | – | – | 0.06 | 0.2 | no binding | 0.07 |
| Antibody 32 (antibody, V domains shown, Human variable region with a rat Fc domain; also called Protein S Antibody with Rat Fc; parental rat antibody of Antibody 26) VH: EVQVVESGGGLVQPGGSLRLSCAASGFTLNSFWMSWVRQAPGKGLEWVANIKEDGSEKYYVDSVKGRFTISRDNAKNSLYLQMNGLRAEDTALYYCARETDILTAYYSDYYSYYGMDVWGQGTTVTVSA VL: DIQMTQSPSSLSASVRDRVTINCRASQSIRSYLNWYQQKPGKAPKLLIYAASSLQGGVPSRFSGSGSGTDFTLTISSLQPEDFATYYCQQSYSTPRTFGQGTKVEIK | – | – | – | – | – | – | – | – | – | – | 0.1 | 0.82 | no binding | 0.33 |
